# Measured values as given in PMC8546591, “Neodymium as Metal Cofactor for Biological Methanol Oxidation: Structure and Kinetics of an XoxF1-Type Methanol Dehydrogenase” (mBio, 2021).
# Assays:
# CO = assay: purified protein; conditions: pH 7, 45°C, 1 mM PES, 100 μM DCPIP, 200 nM enzyme, no ammonium, first 2 min
# C=O = assay: purified protein; conditions: pH 7, 45°C, 1 mM PES, 100 μM DCPIP, 200 nM enzyme, no ammonium, first 2 min, formaldehyde from dissolved paraformaldehyde
substance,measurement,setting,value
Nd-XoxF1 (XoxF1-type methanol dehydrogenase) (Methylacidimicrobium sp. AP8),Km,CO,1.4 ± 0.6 µM
same,Km,C=O,1.6 ± 0.8 µM
